Tests used:
[1] = molecular target: FLAG-SUMO2-GFP-COMP-HA; experiment: native gel or EMSA; native PAGE of the GFP-COMP substrates expressed in S. cerevisiae
[2] = molecular target: Arkadia (RING finger protein 111, RNF111), wild type, expressed in S. cerevisiae (human) (UniProt Q6ZNA4)
[3] = molecular target: SUMO-binding domain of Arkadia (residues 285–416) with mutations in the SOB motif (SOB*) (murine) (UniProt Q99ML9); experiment: ITC
[4] = molecular target: SUMO1-GFP-COMP-HA; experiment: native gel or EMSA; native PAGE of the GFP-COMP substrates expressed in S. cerevisiae

Chain of Arkadia (RING finger protein 111, RNF111), wild type, expressed in S. cerevisiae (human) (Q6ZNA4 whole entry, the tested form may be a part): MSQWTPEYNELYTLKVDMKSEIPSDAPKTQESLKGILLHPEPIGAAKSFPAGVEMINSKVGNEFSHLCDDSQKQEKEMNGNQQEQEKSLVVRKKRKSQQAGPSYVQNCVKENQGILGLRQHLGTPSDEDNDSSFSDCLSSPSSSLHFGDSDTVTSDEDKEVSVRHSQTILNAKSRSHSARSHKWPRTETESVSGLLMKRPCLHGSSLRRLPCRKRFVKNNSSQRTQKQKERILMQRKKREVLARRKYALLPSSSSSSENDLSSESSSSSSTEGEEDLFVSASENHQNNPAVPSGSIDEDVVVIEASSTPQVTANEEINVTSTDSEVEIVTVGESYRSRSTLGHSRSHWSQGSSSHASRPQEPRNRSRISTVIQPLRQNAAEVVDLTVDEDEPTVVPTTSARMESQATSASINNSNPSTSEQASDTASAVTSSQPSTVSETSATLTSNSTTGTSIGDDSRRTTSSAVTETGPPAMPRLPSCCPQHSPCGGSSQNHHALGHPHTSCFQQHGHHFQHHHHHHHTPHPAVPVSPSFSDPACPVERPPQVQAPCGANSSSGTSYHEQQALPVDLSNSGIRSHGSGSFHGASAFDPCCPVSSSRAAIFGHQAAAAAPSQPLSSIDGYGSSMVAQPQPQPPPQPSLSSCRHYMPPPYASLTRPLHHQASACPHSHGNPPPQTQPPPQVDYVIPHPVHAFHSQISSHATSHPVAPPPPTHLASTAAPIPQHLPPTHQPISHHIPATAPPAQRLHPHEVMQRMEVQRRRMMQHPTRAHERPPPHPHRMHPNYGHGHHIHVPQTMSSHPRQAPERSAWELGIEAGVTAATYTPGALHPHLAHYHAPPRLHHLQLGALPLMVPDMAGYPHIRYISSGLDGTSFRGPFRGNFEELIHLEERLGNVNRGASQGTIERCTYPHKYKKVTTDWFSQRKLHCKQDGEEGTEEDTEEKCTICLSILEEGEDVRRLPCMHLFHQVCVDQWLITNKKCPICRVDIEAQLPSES
Chain of SUMO-binding domain of Arkadia (residues 285–416) with mutations in the SOB motif (SOB*) (murine) (Q99ML9 285-416, change not shown): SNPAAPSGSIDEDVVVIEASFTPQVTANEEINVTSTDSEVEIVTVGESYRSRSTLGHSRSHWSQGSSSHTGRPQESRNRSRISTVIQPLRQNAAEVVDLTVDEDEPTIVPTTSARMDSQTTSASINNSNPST

| Substance | steady-state level of the reporter in S. cerevisiae co-expressing Arkadia, against the vector control (quantitative anti-HA Western blot) [2] | Kd [3] | other results |
| --- | --- | --- | --- |
| FLAG-SUMO2-GFP-COMP-HA | – | – | stoichiometry N [1]: 5 |
| FLAG-4xSUMO2-GFP-HA (from UniProt P61956 12-95; P61956 12-95; P61956 12-95) | 60% | – | – |
| linear SUMO2 trimer (tri-SUMO2-ΔN11) (from UniProt P61956 12-95; P61956 12-95; P61956 12-95) | – | 11.1 µM | – |
| SUMO1-GFP-COMP-HA | – | – | stoichiometry N [4]: 5 |
| linear SUMO1-capped SUMO2 trimer (SUMO1-ΔN15 followed by two SUMO2-ΔN11) (from UniProt P63165 16-101; P61956 12-95; P61956 12-95) | – | 12.4 µM | – |
| FLAG-SUMO1-3xSUMO2-GFP-HA | 25% | – | – |

From article PMC6695498
